Source: patent publication US20230235012A1 (ALPINE IMMUNE SCIENCES, published 2023)

T1: human ICOS (human, UniProt Q9Y6W8 21-199)
T1 construct: whole, on cells
T1 sequence (looked up): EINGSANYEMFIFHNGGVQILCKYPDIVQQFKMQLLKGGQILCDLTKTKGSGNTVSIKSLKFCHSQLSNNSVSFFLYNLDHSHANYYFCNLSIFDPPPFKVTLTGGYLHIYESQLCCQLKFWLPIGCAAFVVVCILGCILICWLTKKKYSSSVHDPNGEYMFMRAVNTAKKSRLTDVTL


What was measured:
human ICOS [1] = molecular target: T1, human ICOS; assay: flow cytometry, transfected Expi293 cells
human CTLA-4 [2] = molecular target: T2, human CTLA-4 (human, UniProt P16410 36-223); assay: flow cytometry, transfected cells; protein from CHO
T2 construct: whole, on cells
T2 sequence (P16410 36-223): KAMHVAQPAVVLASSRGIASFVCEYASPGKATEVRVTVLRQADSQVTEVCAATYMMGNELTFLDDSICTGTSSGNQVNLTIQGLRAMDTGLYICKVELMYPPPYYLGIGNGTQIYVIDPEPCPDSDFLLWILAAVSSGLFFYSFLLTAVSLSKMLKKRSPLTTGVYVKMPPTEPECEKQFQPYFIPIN

human CD28 [3] = molecular target: T3, human CD28 (human, UniProt P10747 19-220); assay: as above
T3 construct: whole, on cells

human ICOS [4] = molecular target: T1, human ICOS; assay: as above
human CTLA-4 [5] = molecular target: T2, human CTLA-4; assay: flow cytometry, transfected Expi293 cells
human CD28 [6] = molecular target: T3, human CD28; assay: flow cytometry, transfected Expi293 cells

MFI (human ICOS [1])	MFI (human CTLA-4 [2])	MFI ratio to WT (human CTLA-4 [2])	MFI (human CD28 [3])	MFI ratio to WT (human CD28 [3])	MFI (human ICOS [4])	MFI ratio to WT (human ICOS [4])	Binder	other results
98500 MFI	–	–	–	–	–	–	ICOSL ECD N52H/N57Y/Q100P - no linker - Fc C220S/E233P/L234V/L235A/G236del/S267K (Fc fusion, direct fusion, linker 'None') DTQEKEVRAMVGSDVELSCACPEGSRFDLNDVYVYWQTSESKTVVTYHIPQHSSLEYVDSRYRNRALMSPAGMLRGDFSLRLFNVTPQDEQKFHCLVLSPSLGFQEVLSVEVTLHVAANFSVPVVSAPHSPSQDELTFTCTSINGYPRPNVYWINKTDNSLLDQALQNDTVFLNMRGLYDVVSVLRIARTPSVNIGCCIENVLLQQNLTVGSQTGNDIGERDKITENPVSTGEKNAATEPKSSDKTHTCPPCPAPPVAGPSVFLFPPKPKDTLMISRTPEVTCVVVDVKHEDPEVKFNWYVDGVEVHNAKTKPREEQYNSTYRVVSVLTVLHQDWLNGKEYKCKVSNKALPAPIEKTISKAKGQPREPQVYTLPPSREEMTKNQVSLTCLVKGFYPSDIAVEWESNGQPENNYKTTPPVLDSDGSFFLYSKLTVDKSRWQQGNVFSCSVMHEALHNHYTQKSLSLSPGK	–
–	320000 MFI	42.3 fold	80600 MFI	46.6 fold	108000 MFI	1.1 fold	ICOSL ECD Truncation #4 with N52H/N57Y/Q100R/F172S and E200G, Fc fusion (Fc fusion) DTQEKEVRAMVGSDVELSCACPEGSRFDLNDVYVYWQTSESKTVVTYHIPQHSSLEYVDSRYRNRALMSPAGMLRGDFSLRLFNVTPQDEQKFHCLVLSRSLGFQEVLSVEVTLHVAANFSVPVVSAPHSPSQDELTFTCTSINGYPRPNVYWINKTDNSLLDQALQNDTVSLNMRGLYDVVSVLRIARTPSVNIGCCIGNVLLQQNGGGGSGGGGSEPKSSDKTHTCPPCPAPEAEGAPSVFLFPPKPKDTLMISRTPEVTCVVVDVSHEDPEVKFNWYVDGVEVHNAKTKPREEQYNSTYRVVSVLTVLHQDWLNGKEYKCKVSNKALPAPIEKTISKAKGQPREPQVYTLPPSREEMTKNQVSLTCLVKGFYPSDIAVEWESNGQPENNYKTTPPVLDSDGSFFLYSKLTVDKSRWQQGNVFSCSVMHEALHNHYTQKSLSLSPG	–
–	308000 MFI	40.7 fold	108000 MFI	62.4 fold	133000 MFI	1.3 fold	ICOSL ECD Truncation #8 with N207G/L208G and N52H/N57Y/Q100R/F172S, Fc fusion (Fc fusion) DTQEKEVRAMVGSDVELSCACPEGSRFDLNDVYVYWQTSESKTVVTYHIPQHSSLEYVDSRYRNRALMSPAGMLRGDFSLRLFNVTPQDEQKFHCLVLSRSLGFQEVLSVEVTLHVAANFSVPVVSAPHSPSQDELTFTCTSINGYPRPNVYWINKTDNSLLDQALQNDTVSLNMRGLYDVVSVLRIARTPSVNIGCCIENVLLQQGGTGGGGSGGGGSEPKSSDKTHTCPPCPAPEAEGAPSVFLFPPKPKDTLMISRTPEVTCVVVDVSHEDPEVKFNWYVDGVEVHNAKTKPREEQYNSTYRVVSVLTVLHQDWLNGKEYKCKVSNKALPAPIEKTISKAKGQPREPQVYTLPPSREEMTKNQVSLTCLVKGFYPSDIAVEWESNGQPENNYKTTPPVLDSDGSFFLYSKLTVDKSRWQQGNVFSCSVMHEALHNHYTQKSLSLSPG	–
–	216000 MFI	28.5 fold	86300 MFI	50 fold	110000 MFI	1.1 fold	ICOSL ECD Truncation #5 with N52H/N57Y/Q100R/C198R, Fc fusion (Fc fusion, not restated for the C198R set) DTQEKEVRAMVGSDVELSCACPEGSRFDLNDVYVYWQTSESKTVVTYHIPQHSSLEYVDSRYRNRALMSPAGMLRGDFSLRLFNVTPQDEQKFHCLVLSRSLGFQEVLSVEVTLHVAANFSVPVVSAPHSPSQDELTFTCTSINGYPRPNVYWINKTDNSLLDQALQNDTVFLNMRGLYDVVSVLRIARTPSVNIGCRIENVLLQQGGGGSGGGGSEPKSSDKTHTCPPCPAPEAEGAPSVFLFPPKPKDTLMISRTPEVTCVVVDVSHEDPEVKFNWYVDGVEVHNAKTKPREEQYNSTYRVVSVLTVLHQDWLNGKEYKCKVSNKALPAPIEKTISKAKGQPREPQVYTLPPSREEMTKNQVSLTCLVKGFYPSDIAVEWESNGQPENNYKTTPPVLDSDGSFFLYSKLTVDKSRWQQGNVFSCSVMHEALHNHYTQKSLSLSPG	–
–	322000 MFI	42.4 fold	75300 MFI	43.6 fold	143000 MFI	1.4 fold	ICOSL IgV with N52H/N57Y/Q100R and H48R/S54P, Fc fusion (Fc fusion) DTQEKEVRAMVGSDVELSCACPEGSRFDLNDVYVYWQTSESKTVVTYRIPQHSPLEYVDSRYRNRALMSPAGMLRGDFSLRLFNVTPQDEQKFHCLVLSRSLGFQEVLSVEVTLHVAANFSVGGGGSGGGGSEPKSSDKTHTCPPCPAPEAEGAPSVFLFPPKPKDTLMISRTPEVTCVVVDVSHEDPEVKFNWYVDGVEVHNAKTKPREEQYNSTYRVVSVLTVLHQDWLNGKEYKCKVSNKALPAPIEKTISKAKGQPREPQVYTLPPSREEMTKNQVSLTCLVKGFYPSDIAVEWESNGQPENNYKTTPPVLDSDGSFFLYSKLTVDKSRWQQGNVFSCSVMHEALHNHYTQKSLSLSPG	–
97700 MFI	–	–	–	–	–	–	ICOSL ECD N52H/N57Y/Q100P - no linker - Fc C220S/L234A/L235E/G237A (Fc fusion, direct fusion, linker 'none') DTQEKEVRAMVGSDVELSCACPEGSRFDLNDVYVYWQTSESKTVVTYHIPQHSSLEYVDSRYRNRALMSPAGMLRGDFSLRLFNVTPQDEQKFHCLVLSPSLGFQEVLSVEVTLHVAANFSVPVVSAPHSPSQDELTFTCTSINGYPRPNVYWINKTDNSLLDQALQNDTVFLNMRGLYDVVSVLRIARTPSVNIGCCIENVLLQQNLTVGSQTGNDIGERDKITENPVSTGEKNAATEPKSSDKTHTCPPCPAPEAEGAPSVFLFPPKPKDTLMISRTPEVTCVVVDVSHEDPEVKFNWYVDGVEVHNAKTKPREEQYNSTYRVVSVLTVLHQDWLNGKEYKCKVSNKALPAPIEKTISKAKGQPREPQVYTLPPSREEMTKNQVSLTCLVKGFYPSDIAVEWESNGQPENNYKTTPPVLDSDGSFFLYSKLTVDKSRWQQGNVFSCSVMHEALHNHYTQKSLSLSPGK	–
106000 MFI	–	–	–	–	–	–	ICOSL ECD N52H/N57Y/Q100R/F172S - no linker - Fc C220S/L234A/L235E/G237A (Fc fusion, direct fusion, linker 'none') DTQEKEVRAMVGSDVELSCACPEGSRFDLNDVYVYWQTSESKTVVTYHIPQHSSLEYVDSRYRNRALMSPAGMLRGDFSLRLFNVTPQDEQKFHCLVLSRSLGFQEVLSVEVTLHVAANFSVPVVSAPHSPSQDELTFTCTSINGYPRPNVYWINKTDNSLLDQALQNDTVSLNMRGLYDVVSVLRIARTPSVNIGCCIENVLLQQNLTVGSQTGNDIGERDKITENPVSTGEKNAATEPKSSDKTHTCPPCPAPEAEGAPSVFLFPPKPKDTLMISRTPEVTCVVVDVSHEDPEVKFNWYVDGVEVHNAKTKPREEQYNSTYRVVSVLTVLHQDWLNGKEYKCKVSNKALPAPIEKTISKAKGQPREPQVYTLPPSREEMTKNQVSLTCLVKGFYPSDIAVEWESNGQPENNYKTTPPVLDSDGSFFLYSKLTVDKSRWQQGNVFSCSVMHEALHNHYTQKSLSLSPGK	–
104000 MFI	–	–	–	–	–	–	ICOSL ECD N52H/N57Y/Q100R/F172S - AAA - Fc C220S/E233P/L234V/L235A/G236del/S267K (Fc fusion) DTQEKEVRAMVGSDVELSCACPEGSRFDLNDVYVYWQTSESKTVVTYHIPQHSSLEYVDSRYRNRALMSPAGMLRGDFSLRLFNVTPQDEQKFHCLVLSRSLGFQEVLSVEVTLHVAANFSVPVVSAPHSPSQDELTFTCTSINGYPRPNVYWINKTDNSLLDQALQNDTVSLNMRGLYDVVSVLRIARTPSVNIGCCIENVLLQQNLTVGSQTGNDIGERDKITENPVSTGEKNAATAAAEPKSSDKTHTCPPCPAPPVAGPSVFLFPPKPKDTLMISRTPEVTCVVVDVKHEDPEVKFNWYVDGVEVHNAKTKPREEQYNSTYRVVSVLTVLHQDWLNGKEYKCKVSNKALPAPIEKTISKAKGQPREPQVYTLPPSREEMTKNQVSLTCLVKGFYPSDIAVEWESNGQPENNYKTTPPVLDSDGSFFLYSKLTVDKSRWQQGNVFSCSVMHEALHNHYTQKSLSLSPGK	MFI (human CTLA-4 [5]): 193000 MFI; MFI ratio to WT (human CTLA-4 [5]): 20.5 fold; MFI (human CD28 [6]): 57300 MFI; MFI ratio to WT (human CD28 [6]): 10.9 fold; MFI ratio to WT (human ICOS [1]): 1.3 fold
–	133000 MFI	17.5 fold	59200 MFI	34.3 fold	139000 MFI	1.4 fold	ICOSL ECD with N52H/N57Y/Q100R/C198R, Fc fusion (Table 30C) (Fc fusion, not restated for the C198R set) DTQEKEVRAMVGSDVELSCACPEGSRFDLNDVYVYWQTSESKTVVTYHIPQHSSLEYVDSRYRNRALMSPAGMLRGDFSLRLFNVTPQDEQKFHCLVLSRSLGFQEVLSVEVTLHVAANFSVPVVSAPHSPSQDELTFTCTSINGYPRPNVYWINKTDNSLLDQALQNDTVFLNMRGLYDVVSVLRIARTPSVNIGCRIENVLLQQNLTVGSQTGNDIGERDKITENPVSTGEKNAATGGGGSGGGGSEPKSSDKTHTCPPCPAPEAEGAPSVFLFPPKPKDTLMISRTPEVTCVVVDVSHEDPEVKFNWYVDGVEVHNAKTKPREEQYNSTYRVVSVLTVLHQDWLNGKEYKCKVSNKALPAPIEKTISKAKGQPREPQVYTLPPSREEMTKNQVSLTCLVKGFYPSDIAVEWESNGQPENNYKTTPPVLDSDGSFFLYSKLTVDKSRWQQGNVFSCSVMHEALHNHYTQKSLSLSPG	–
93400 MFI	–	–	–	–	–	–	ICOSL ECD N52H/N57Y/Q100P - G4S - Fc C220S/E233P/L234V/L235A/G236del/S267K (Fc fusion) DTQEKEVRAMVGSDVELSCACPEGSRFDLNDVYVYWQTSESKTVVTYHIPQHSSLEYVDSRYRNRALMSPAGMLRGDFSLRLFNVTPQDEQKFHCLVLSPSLGFQEVLSVEVTLHVAANFSVPVVSAPHSPSQDELTFTCTSINGYPRPNVYWINKTDNSLLDQALQNDTVFLNMRGLYDVVSVLRIARTPSVNIGCCIENVLLQQNLTVGSQTGNDIGERDKITENPVSTGEKNAATGGGGSEPKSSDKTHTCPPCPAPPVAGPSVFLFPPKPKDTLMISRTPEVTCVVVDVKHEDPEVKFNWYVDGVEVHNAKTKPREEQYNSTYRVVSVLTVLHQDWLNGKEYKCKVSNKALPAPIEKTISKAKGQPREPQVYTLPPSREEMTKNQVSLTCLVKGFYPSDIAVEWESNGQPENNYKTTPPVLDSDGSFFLYSKLTVDKSRWQQGNVFSCSVMHEALHNHYTQKSLSLSPGK	MFI (human CTLA-4 [5]): 188000 MFI
